Reference: IntAct's records for PubMed 31695625

Legend:
[1] = target: T1, SLC2A9, Q9NRM0-1
T1 sequence: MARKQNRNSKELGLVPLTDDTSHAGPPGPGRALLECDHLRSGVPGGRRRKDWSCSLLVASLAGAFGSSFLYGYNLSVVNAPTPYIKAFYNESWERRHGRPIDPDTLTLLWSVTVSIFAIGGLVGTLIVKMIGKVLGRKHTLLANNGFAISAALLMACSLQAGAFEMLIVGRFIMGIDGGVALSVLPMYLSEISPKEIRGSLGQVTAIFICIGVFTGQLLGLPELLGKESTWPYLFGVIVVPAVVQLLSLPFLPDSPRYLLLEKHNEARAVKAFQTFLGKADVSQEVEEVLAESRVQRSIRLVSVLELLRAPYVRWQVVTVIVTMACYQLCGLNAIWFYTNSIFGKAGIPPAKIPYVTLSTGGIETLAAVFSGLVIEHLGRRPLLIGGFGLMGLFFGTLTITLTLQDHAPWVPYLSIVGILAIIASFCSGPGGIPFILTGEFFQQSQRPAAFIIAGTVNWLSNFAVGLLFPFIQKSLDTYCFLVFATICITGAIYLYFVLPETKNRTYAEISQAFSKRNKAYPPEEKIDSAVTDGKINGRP

[2] = target: T2, SLC2A9, Q9NRM0-2
T2 sequence: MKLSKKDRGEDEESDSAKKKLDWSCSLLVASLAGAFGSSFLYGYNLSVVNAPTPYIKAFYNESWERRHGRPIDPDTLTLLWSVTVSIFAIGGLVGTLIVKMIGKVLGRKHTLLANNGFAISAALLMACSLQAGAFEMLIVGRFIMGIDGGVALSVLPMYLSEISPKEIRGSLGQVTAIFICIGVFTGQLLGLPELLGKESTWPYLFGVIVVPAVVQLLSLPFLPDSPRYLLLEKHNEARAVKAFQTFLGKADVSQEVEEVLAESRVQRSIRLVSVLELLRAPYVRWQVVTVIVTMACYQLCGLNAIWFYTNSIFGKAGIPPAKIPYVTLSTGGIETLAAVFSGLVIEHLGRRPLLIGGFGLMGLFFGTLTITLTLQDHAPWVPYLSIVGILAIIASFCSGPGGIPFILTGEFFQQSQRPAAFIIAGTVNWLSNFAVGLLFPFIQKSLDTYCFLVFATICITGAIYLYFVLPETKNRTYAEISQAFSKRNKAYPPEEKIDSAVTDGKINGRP

effect of a mutation on the interaction [1] | effect of a mutation on the interaction [2] | Substance
with no effect | with no effect | Integral membrane protein 2B (Homo sapiens) (from UniProt Q9Y287) E261A
decreasing interaction strength | – | Integral membrane protein 2B (Homo sapiens) (from UniProt Q9Y287) N170Q
